Experimental data from article PMC5482573 (eLife, 2017).

T1: α-COP (M. musculus, in recombinant coatomer) (M. musculus, UniProt Q8CIE6 1-1224)
T1 construct: alpha-COP, coatomer subunit alpha, M. musculus; Stood in the assays as a subunit of the whole heptameric coatomer; source: SF9 insect cells (baculovirus), as part of recombinant coatomer, purified
T1 sequence: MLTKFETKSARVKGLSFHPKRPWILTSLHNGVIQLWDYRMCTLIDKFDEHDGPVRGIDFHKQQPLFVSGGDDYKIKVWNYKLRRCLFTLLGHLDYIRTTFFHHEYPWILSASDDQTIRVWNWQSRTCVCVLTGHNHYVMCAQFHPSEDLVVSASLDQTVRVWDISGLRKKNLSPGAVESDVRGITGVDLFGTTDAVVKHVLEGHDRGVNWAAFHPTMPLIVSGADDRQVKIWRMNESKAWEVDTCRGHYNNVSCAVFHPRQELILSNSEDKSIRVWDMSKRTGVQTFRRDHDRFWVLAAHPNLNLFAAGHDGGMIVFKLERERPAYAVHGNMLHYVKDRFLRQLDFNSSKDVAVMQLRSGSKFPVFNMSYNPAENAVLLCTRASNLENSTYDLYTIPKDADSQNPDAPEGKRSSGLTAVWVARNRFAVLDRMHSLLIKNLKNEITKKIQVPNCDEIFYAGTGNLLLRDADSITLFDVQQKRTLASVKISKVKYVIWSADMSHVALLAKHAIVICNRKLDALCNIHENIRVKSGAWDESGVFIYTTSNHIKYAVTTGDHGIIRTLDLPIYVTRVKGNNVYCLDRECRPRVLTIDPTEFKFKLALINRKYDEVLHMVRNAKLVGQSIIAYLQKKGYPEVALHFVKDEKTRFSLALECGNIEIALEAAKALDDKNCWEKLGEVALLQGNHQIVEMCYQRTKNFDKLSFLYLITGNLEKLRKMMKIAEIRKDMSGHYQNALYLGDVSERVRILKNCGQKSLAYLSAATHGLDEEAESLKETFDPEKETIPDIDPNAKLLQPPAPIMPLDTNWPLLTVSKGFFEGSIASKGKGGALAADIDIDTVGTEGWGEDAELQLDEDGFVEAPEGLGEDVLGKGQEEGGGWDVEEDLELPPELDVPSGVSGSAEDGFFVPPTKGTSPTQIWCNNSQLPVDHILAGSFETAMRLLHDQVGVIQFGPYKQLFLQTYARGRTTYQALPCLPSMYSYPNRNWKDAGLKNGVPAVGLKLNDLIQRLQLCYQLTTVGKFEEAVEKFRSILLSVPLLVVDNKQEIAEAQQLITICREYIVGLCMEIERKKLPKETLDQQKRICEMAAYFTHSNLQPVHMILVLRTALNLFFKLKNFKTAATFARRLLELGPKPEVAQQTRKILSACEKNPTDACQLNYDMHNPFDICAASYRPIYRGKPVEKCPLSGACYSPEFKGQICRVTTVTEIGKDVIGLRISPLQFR

B1: β’-COP (M. musculus, in recombinant coatomer) (natural protein)
chain: MPLRLDIKRKLTARSDRVKSVDLHPTEPWMLASLYNGSVCVWNHETQTLVKTFEVCDLPVRAAKFVARKNWVVTGADDMQIRVFNYNTLERVHMFEAHSDYIRCIAVHPTQPFILTSSDDMLIKLWDWDKKWSCSQVFEGHTHYVMQIVINPKDNNQFASASLDRTIKVWQLGSSSPNFTLEGHEKGVNCIDYYSGGDKPYLISGADDRLVKIWDYQNKTCVQTLEGHAQNVSCASFHPELPIIITGSEDGTVRIWHSSTYRLESTLNYGMERVWCVASLRGSNNVALGYDEGSIIVKLGREEPAMSMDANGKIIWAKHSEVQQANLKAMGDTEIKDGERLPLAVKDMGSCEIYPQTIQHNPNGRFVVVCGDGEYIIYTAMALRNKSFGSAQEFAWAHDSSEYAIRESNSIVKIFKNFKEKKSFKPDFGAESIYGGFLLGVRSVNGLAFYDWENTELIRRIEIQPKHIFWSDSGELVCIATEESFFILKYLSEKVLAAQETHEGVTEDGIEDAFEVLGEIQEIVKTGLWVGDCFIYTSSVNRLNYYVGGEIVTIAHLDRTMYLLGYIPKDNRLYLGDKELNIVSYSLLVSVLEYQTAVMRRDFSMADKVLPTIPKEQRTRVAHFLEKQGFKQQALTVSTDPEHRFELALQLGELKIAYQLAVEAESEQKWKQLAELAISKCQFSLAQECLHHAQDYGGLLLLATASGNASMVNKLAEGAERDGKNNVAFMSYFLQGKLDACLELLIRTGRLPEAAFLARTYLPSQVSRVVKLWRENLSKVNQKAAESLADPTEYENLFPGLKEAFVVEEWVKETHADLWPAKQYPLVTPNEERNVMEEAKGFQPSRPTAQQEPDGKPASSPVIMASQTTHKEEKSLLELEVDLDNLELEDIDTTDINLDEDILDD
notes: beta'-COP, coatomer subunit beta', M. musculus; Stood in the assays as a subunit of the whole heptameric coatomer; source: SF9 insect cells (baculovirus), as part of recombinant coatomer, purified
B2: R. norvegicus ArfGAP2, full-length, N-terminally His-tagged (enzyme)
chain: not shown
notes: PDB 2P57 was fitted for it; source: insect cells, purified (Ni-NTA, gel filtration)
B3: β-COP (M. musculus, in recombinant coatomer) (natural protein)
chain: MTAAENVCYTLINVPMDSEPPSEISLKNDLEKGDVKSKTEALKKVIIMILNGEKLPGLLMTIIRFVLPLQDHTIKKLLLVFWEIVPKTTPDGRLLHEMILVCDAYRKDLQHPNEFIRGSTLRFLCKLKEAELLEPLMPAIRACLEHRHSYVRRNAVLAIYTIYRNFEHLIPDAPELIHDFLVNEKDASCKRNAFMMLIHADQDRALDYLSTCIDQVQTFGDILQLVIVELIYKVCHANPSERARFIRCIYNLLQSSSPAVKYEAAGTLVTLSSAPTAIKAAAQCYIDLIIKESDNNVKLIVLDRLVELKEHPAHERVLQDLVMDILRVLSTPDLEVRKKTLQLALDLVSSRNVEELVIVLKKEVIKTNNVSEHEDTDKYRQLLVRTLHSCSVRFPDMAANVIPVLMEFLSDSNEAAAADVLEFVREAIQRFDNLRMLIVEKMLEVFHAIKSVKIYRGALWILGEYCSTKEDIQSVMTEVRRSLGEIPIVESEIKKEAGELKPEEEITVGPVQKLVTEMGTYATQSALSSSRPTKKEEDRPPLRGFLLDGDFFVAASLATTLTKIALRYVALVQEKKKQNSFVAEAMLLMATILHLGKSSLPKKPITDDDVDRISLCLKVLSECSPLMNDIFNKECRQSLSQMLSAKLEEEKLSQKKESEKRNVTVQPDDPISFMQLTAKNEMNCKEDQFQLSLLAAMGNTQRKEAADPLASKLNKVTQLTGFSDPVYAEAYVHVNQYDIVLDVLVVNQTSDTLQNCTLELATLGDLKLVEKPSPLTLAPHDFANIKANVKVASTENGIIFGNIVYDVSGAASDRNCVVLSDIHIDIMDYIQPATCTDAEFRQMWAEFEWENKVTVNTNMTDLNDYLQHILKSTNMKCLTPEKALSGYCGFMAANLYARSIFGEDALANVSIEKPVHQGPDAAVTGHIRIRAKSQGMALSLGDKINLSQKKTSL
notes: beta-COP, coatomer subunit beta, M. musculus. numbers count on: the construct with its N-terminal His-tag, shifted by 15 residues relative to Q9JIF7; Stood in the assays as a subunit of the whole heptameric coatomer; The coatomer of the photo-cross-linking is called only 'coatomer'; source: SF9 insect cells (baculovirus), as part of recombinant coatomer, purified

How the values were obtained:
Settings in all cases: both partners purified
[1] = molecular target: B2; test: cryo-EM structure; COPI coated vesicles with GTPγS incubated 15–20 min with a 10 molar excess of ArfGAP2; subtomogram averaging, difference map and classification; class with ArfGAP2 at 10.1 Å
[2] = molecular target: B3; test: cryo-EM structure; cryo-electron tomography and subtomogram averaging of the COPI leaf, 9.2 Å; coat assembled in vitro from coatomer (840 nM), Arf1 (2 μM), GTPγS, ARNO and GUVs, 37°C, 50 mM HEPES pH 7.4, 50 mM KOAc, 1 mM MgCl2
[3] = molecular target: T1, α-COP (M. musculus, in recombinant …); test: as above
[4] = molecular target: B3; test: cryo-EM structure; COPI coated vesicles with GTPγS incubated 15–20 min with a 10 molar excess of ArfGAP2; subtomogram averaging, difference map and classification; class with ArfGAP2 at 10.1 Å
[5] = molecular target: B1; test: as above

Binder	binding result [1]	binding result [2]	binding result [3]	binding result [4]	binding result [5]
S. cerevisiae myristoylated Arf1 (natural protein, myristoylated, Arf1 (ADP-ribosylation factor 1), S. cerevisiae, loaded with GTPγS on membranes; also called γArf1 (central); βArf1 (peripheral); source: E. coli, purified) MGLFASKLFSNLFGNKEMRILMVGLDGAGKTTVLYKLKLGEVITTIPTIGFNVETVQYKNISFTVWDVGGQDRIRSLWRHYYRNTEGVIFVVDSNDRSRIGEAREVMQRMLNEDELRNAAWLVFANKQDLPEAMSAAEITEKLGLHSIRNRPWFIQATCATSGEGLYEGLEWLSNSLKNST	binds	binds			
B1		binds	binds		
B2				binds	binds
B3			binds		
